Measured values as given in article PMC4303335.

Columns and labels:
[1] = target: H3–K27 substrate peptide of the sensor (no NLS); test: split reporter
[2] = target: H3–K9 substrate peptide of the sensor with C-terminal NLS (NhRluc8.6-Suv39H1–H3–K9-ChRLuc-NLS); test: split reporter

Substance | reconstituted RLuc signal (RLU/μg protein) [1] | reconstituted RLuc signal [2] | reconstituted RLuc signal (RLU/μg protein) [2]
Pc2 chromodomain in the H3–K27 sensor (domain or fragment) | 3.67e+07 | – | –
Suv39H1 chromodomain in the H3–K9 sensor (NhRluc8.6-Suv39H1–H3–K9-ChRLuc) (domain or fragment) | – | 3.3e+06 | 5.26e+06
Suv39H1 chromodomain mutant (W64A, W74A) in the H3–K9 sensor (domain or fragment) | – | 1.75e+06 | –
